In US20210292396A1 (INTERNATIONAL AIDS VACCINE INITIATIVE, published 2021):
Residue numbers refer to the chain shown, from its start.

B1: PGT-121 (antibody, V domains shown)
VH: QMQLQESGPGLVKPSETLSLTCSVSGASISDSYWSWIRRSPGKGLEWIGYVHKSGDTNYSPSLKSRVNLSLDTSKNQVSLSLVAATAADSGKYYCARTLHGRRIYGIVAFNEWFTYFYMDVWGNGTQVTVSS
VL: SDISVAPGETARISCGEKSLGSRAVQWYQHRAGQAPSLIIYNNQDRPSGIPERFSGSPDSPFGTTATLTITSVEAGDEADYYCHIWDSRVPTKWVFGGGTTLTVLG
B2: ePGT121.15.H1.L1 (antibody, V domains shown)
VH: QMQLQESGPGLVKPGETLSLTCSVSGASISSSYWSWLRETPGKGLEWIGYTHHSGDTNYAPSLKSRVHLGLHPSKNQVSLSLTSVTAADTAVYYCARTLHGRRIYGVVAFNEWFTYFYWEVWGNGTQVTVSS
VL: SDISVAPGETVRISCGGESIGSRAVQWYQHRAGQAPKLIIYNNQDRPPGIPERFSGSPDIDFGTTATLTITNVEAGDEATYYCHIWDSRRPTNWVFGGGTTLTVL
B3: ePGT121.15.H6.L1 (antibody, V domains shown)
VH: B2 VH with W113F, N124K
VL: B2 VL

biological target: HIV Env of isolate 3301.v1.c24 (HIV); assay: cell-based or functional assay

Binder | neutralization (Table 6 value)
B1 | 0.00869
B2 | 0.00166
B3 | 0.00134

biological target: HIV Env of isolate WEAU_d15_410_5017 (HIV); assay: cell-based or functional assay

Binder | neutralization (Table 6 value)
B1 | 0.0144
B2 | 0.00209
B3 | 0.00205

biological target: HIV Env of isolate Q23.17 (HIV); assay: cell-based or functional assay

Binder | neutralization (Table 6 value)
B1 | 0.00412
B2 | 0.00126
B3 | 0.00146

biological target: HIV Env of isolate HIV-001428-2.42 (HIV); assay: cell-based or functional assay

Binder | neutralization (Table 6 value)
B1 | 0.0111
B2 | 0.00153
B3 | 0.00181

biological target: HIV Env of isolate 6535.3 (HIV); assay: cell-based or functional assay

Binder | neutralization (Table 6 value)
B1 | 0.00325
B2 | 0.00121
B3 | 0.00121

biological target: HIV Env of isolate 1012_11_TC21_3257 (HIV); assay: cell-based or functional assay

Binder | neutralization (Table 6 value)
B1 | 0.00917
B2 | 0.00262
B3 | 0.00194

biological target: HIV Env of isolate CNE30 (HIV); assay: cell-based or functional assay

Binder | neutralization (Table 6 value)
B1 | 0.00313
B2 | 0.00299
B3 | 0.00289

biological target: HIV Env of isolate X1193_c1 (HIV); assay: cell-based or functional assay

Binder | neutralization (Table 6 value)
B1 | 0.000417
B2 | 0.000256
B3 | 0.000518

biological target: HIV Env of isolate A07412M1.vrc12 (HIV); assay: cell-based or functional assay

Binder | neutralization (Table 6 value)
B1 | 0.00949
B2 | 0.000964
B3 | 0.00204

biological target: HIV Env of isolate QH0692.42 (HIV); assay: cell-based or functional assay

Binder | neutralization (Table 6 value)
B1 | 0.176
B2 | 0.0149
B3 | 0.0126

biological target: HIV Env of isolate CNE19 (HIV); assay: cell-based or functional assay

Binder | neutralization (Table 6 value)
B1 | 0.00315
B2 | 0.00103
B3 | 0.000806

biological target: HIV Env of isolate Du422.1 (HIV); assay: cell-based or functional assay

Binder | neutralization (Table 6 value)
B1 | 0.00172
B2 | 0.00243
B3 | 0.00264

biological target: HIV Env of isolate RHPA4259.7 (HIV); assay: cell-based or functional assay

Binder | neutralization (Table 6 value)
B1 | 0.00915
B2 | 0.00233
B3 | 0.00225

biological target: HIV Env of isolate CNE52 (HIV); assay: cell-based or functional assay

Binder | neutralization (Table 6 value)
B1 | 1.94
B2 | 0.0515
B3 | 0.0784

biological target: HIV Env of isolate TRJO4551.58 (HIV); assay: cell-based or functional assay

Binder | neutralization (Table 6 value)
B1 | 0.406
B2 | 0.00359
B3 | 0.00673

biological target: HIV Env of isolate T251-18 (HIV); assay: cell-based or functional assay

Binder | neutralization (Table 6 value)
B1 | 1.16
B2 | 0.0274
B3 | 0.0274

biological target: HIV Env of isolate CAP45.2.00.G3 (HIV); assay: cell-based or functional assay

Binder | neutralization (Table 6 value)
B1 | 0.0713
B2 | 3.06
B3 | 1.8e-05

biological target: HIV Env of isolate Ce1172_H1 (HIV); assay: cell-based or functional assay

Binder | neutralization (Table 6 value)
B1 | 0.00693
B2 | 0.00075
B3 | 0.000952

biological target: HIV Env of isolate 191084_B7-19 (HIV); assay: cell-based or functional assay

Binder | neutralization (Table 6 value)
B1 | 0.0247
B2 | 0.00279
B3 | 0.00312

biological target: HIV Env of isolate 6480.v4.c25 (HIV); assay: cell-based or functional assay

Binder | neutralization (Table 6 value)
B1 | 0.000306
B2 | 0.000305
B3 | 0.000826

biological target: HIV Env of isolate X1254_c3 (HIV); assay: cell-based or functional assay

Binder | neutralization (Table 6 value)
B1 | 0.0206
B2 | 0.00299
B3 | 0.00272

biological target: HIV Env of isolate REJO4541.67 (HIV); assay: cell-based or functional assay

Binder | neutralization (Table 6 value)
B1 | 0.286
B2 | 0.311
B3 | 8e-06

biological target: HIV Env of isolate 7030102001E5(Rev-) (HIV); assay: cell-based or functional assay

Binder | neutralization (Table 6 value)
B1 | 0.00679
B2 | 0.00261
B3 | 0.00241

biological target: HIV Env of isolate ZM214M.PL15 (HIV); assay: cell-based or functional assay

Binder | neutralization (Table 6 value)
B1 | 0.119
B2 | 0.0146
B3 | 0.00993

biological target: HIV Env of isolate CNE53 (HIV); assay: cell-based or functional assay

Binder | neutralization (Table 6 value)
B1 | 0.00701
B2 | 0.00288
B3 | 0.00306

biological target: HIV Env of isolate ZM109F.PB4 (HIV); assay: cell-based or functional assay

Binder | neutralization (Table 6 value)
B1 | 0.558
B2 | 2.15
B3 | 0.742

biological target: HIV Env of isolate ZM53M.PB12 (HIV); assay: cell-based or functional assay

Binder | neutralization (Table 6 value)
B1 | 0.00038
B2 | 0.00206
B3 | 0.00204

biological target: HIV Env of isolate SC422661.8 (HIV); assay: cell-based or functional assay

Binder | neutralization (Table 6 value)
B1 | 0.0272
B2 | 0.00372
B3 | 0.00285

biological target: HIV Env of isolate ZM247v1(Rev-) (HIV); assay: cell-based or functional assay

Binder | neutralization (Table 6 value)
B1 | 0.0114
B2 | 0.00158
B3 | 0.00191

biological target: HIV Env of isolate Du172.17 (HIV); assay: cell-based or functional assay

Binder | neutralization (Table 6 value)
B1 | 0.0316
B2 | 0.0024
B3 | 0.00203

biological target: HIV Env of isolate CNE20 (HIV); assay: cell-based or functional assay

Binder | neutralization (Table 6 value)
B1 | 0.00147
B2 | 0.000933
B3 | 0.00133

biological target: HIV Env of isolate 6811.v7.c18 (HIV); assay: cell-based or functional assay

Binder | neutralization (Table 6 value)
B1 | 0.00125
B2 | 0.00109
B3 | 0.00114

biological target: HIV Env of isolate Ce704809221_1B3 (HIV); assay: cell-based or functional assay

Binder | neutralization (Table 6 value)
B1 | 0.028
B2 | 0.00162
B3 | 0.00231

biological target: HIV Env of isolate 0260.v5.c36 (HIV); assay: cell-based or functional assay

Binder | neutralization (Table 6 value)
B1 | 0.00144
B2 | 0.00247
B3 | 0.00217

biological target: HIV Env of isolate P0402_C2_11 (HIV); assay: cell-based or functional assay

Binder | neutralization (Table 6 value)
B1 | 0.000423
B2 | 0.00268
B3 | 0.0015

biological target: HIV Env of isolate 62357_14_D3_4589 (HIV); assay: cell-based or functional assay

Binder | neutralization (Table 6 value)
B1 | 0.392
B2 | 0.00982
B3 | 0.0132

biological target: HIV Env of isolate TRO.11 (HIV); assay: cell-based or functional assay

Binder | neutralization (Table 6 value)
B1 | 0.00843
B2 | 0.00156
B3 | 0.0014

biological target: HIV Env of isolate 928-28 (HIV); assay: cell-based or functional assay

Binder | neutralization (Table 6 value)
B1 | 0.836
B2 | 0.0868
B3 | 0.0852

biological target: HIV Env of isolate P1981_C5_3 (HIV); assay: cell-based or functional assay

Binder | neutralization (Table 6 value)
B1 | 0.00146
B2 | 0.00069
B3 | 0.000543

biological target: HIV Env of isolate PVO.4 (HIV); assay: cell-based or functional assay

Binder | neutralization (Table 6 value)
B1 | 0.115
B2 | 0.0044
B3 | 0.00517

biological target: HIV Env of isolate 246F_C1G (HIV); assay: cell-based or functional assay

Binder | neutralization (Table 6 value)
B1 | 0.0215
B2 | 0.00428
B3 | 0.00278

biological target: HIV Env of isolate 1394C9G1(Rev-) (HIV); assay: cell-based or functional assay

Binder | neutralization (Table 6 value)
B1 | 0.122
B2 | 0.00403
B3 | 0.00288

biological target: HIV Env of isolate 1056_10_TA11_1826 (HIV); assay: cell-based or functional assay

Binder | neutralization (Table 6 value)
B1 | 0.0162
B2 | 0.00391
B3 | 0.00186

biological target: HIV Env of isolate 3817.v2.c59 (HIV); assay: cell-based or functional assay

Binder | neutralization (Table 6 value)
B1 | 0.00949
B2 | 0.00495
B3 | 0.00361

biological target: HIV Env of isolate 3103.v3.c10 (HIV); assay: cell-based or functional assay

Binder | neutralization (Table 6 value)
B1 | 0.0206
B2 | 0.00509
B3 | 0.00513
